Patent US20030148956A1 (PROCTER AND GAMBLE, published 2003)
Substitutions are numbered along the chain they refer to. Ends that are not written are not given here.

T1: corticotropin releasing factor 2 receptor
T1 sequence (Q13324 whole entry, species assumed, looked up): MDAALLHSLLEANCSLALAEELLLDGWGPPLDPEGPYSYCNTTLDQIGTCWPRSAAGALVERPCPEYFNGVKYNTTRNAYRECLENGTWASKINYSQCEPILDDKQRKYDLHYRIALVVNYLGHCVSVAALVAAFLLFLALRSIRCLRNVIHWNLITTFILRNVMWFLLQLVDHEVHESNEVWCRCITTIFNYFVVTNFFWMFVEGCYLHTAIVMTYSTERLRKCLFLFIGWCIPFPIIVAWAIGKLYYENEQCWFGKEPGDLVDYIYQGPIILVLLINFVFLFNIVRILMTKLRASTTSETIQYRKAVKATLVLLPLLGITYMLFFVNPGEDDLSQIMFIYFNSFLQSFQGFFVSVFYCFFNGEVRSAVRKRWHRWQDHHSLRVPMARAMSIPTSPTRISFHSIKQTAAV

T2: CRF2R
T2 sequence (Q13324 whole entry, species assumed, looked up): T1 sequence (Q13324 whole entry, species assumed, looked up)

B1: SEQ ID NO 257 (peptide)
peptide: NDDPPISIDLPLFLLRNMIEMARIENEREQAGLNAKYLAEV-NH2
B2: SEQ ID NO 256 (peptide)
peptide: ZGPPISIDVPFQLLRKMIEIEKQEKEKQQAANNRLLLDTI
modifications: C-terminal amide
B3: SEQ ID NO 258 (peptide)
peptide: NDDPPISIDLPFQLLRNMIEMARIENEREQAGLNAKYLAEV-NH2
B4: SEQ ID NO 208 (peptide)
peptide: B2 peptide with V9L, F11Y, Q12H
modifications: C-terminal amide
B5: SEQ ID NO 199 (peptide)
peptide: B2 peptide with V9L, F11Q, Q12I
modifications: C-terminal amide
B6: SEQ ID NO 203 (peptide)
peptide: B2 peptide with V9L, F11Y, Q12L
modifications: C-terminal amide
B7: SEQ ID NO 207 (peptide)
peptide: B2 peptide with V9L, F11Q, Q12H
modifications: C-terminal amide
B8: SEQ ID NO 196 (peptide)
peptide: B2 peptide with V9L, F11Q, Q12L
modifications: C-terminal amide
B9: SEQ ID NO 24 (peptide)
peptide: B2 peptide with V9L, F11I, Q12T
modifications: C-terminal amide
B10: SEQ ID NO 201 (peptide)
peptide: B2 peptide with V9L, F11Y, Q12V
modifications: C-terminal amide
B11: SEQ ID NO 200 (peptide)
peptide: B2 peptide with V9L, F11Y, Q12T
modifications: C-terminal amide
B12: SEQ ID NO 209 (peptide)
peptide: B2 peptide with V9L, F11W, Q12H
modifications: C-terminal amide
B13: SEQ ID NO 206 (peptide)
peptide: B2 peptide with V9L, F11A, Q12H
modifications: C-terminal amide
B14: SEQ ID NO 194 (peptide)
peptide: B2 peptide with V9L, F11L, Q12I
modifications: C-terminal amide
B15: SEQ ID NO 195 (peptide)
peptide: B2 peptide with V9L, F11L, Q12F
modifications: C-terminal amide
B16: SEQ ID NO 204 (peptide)
peptide: B2 peptide with V9L, F11Y, Q12I
modifications: C-terminal amide
B17: SEQ ID NO 210 (peptide)
peptide: B2 peptide with V9L, F11W
modifications: C-terminal amide
B18: SEQ ID NO 211 (peptide)
peptide: B2 peptide with V9L, F11A
modifications: C-terminal amide
B19: SEQ ID NO 205 (peptide)
peptide: B2 peptide with V9L, F11H, Q12H
modifications: C-terminal amide
B20: SEQ ID NO 202 (peptide)
peptide: B2 peptide with V9L, F11Y
modifications: C-terminal amide
B21: SEQ ID NO 20 (peptide)
peptide: ZGPPISIDLPFQLLRKMIEIEKQEKEKQQATTNARLLDTV
modifications: C-terminal amide
B22: SEQ ID NO 22 (peptide)
peptide: B21 peptide with T39R
modifications: C-terminal amide
B23: SEQ ID NO 21 (peptide)
peptide: B21 peptide with D38A
modifications: C-terminal amide
B24: SEQ ID NO 23 (peptide)
peptide: B21 peptide with D38A, T39R
modifications: C-terminal amide

target: corticotropin releasing factor 1 receptor; experiment: cell-based or functional assay

Point of comparison: B3, “CRF1R EC50” value 1000 nM. Against it:
- B1 — within 1.5-fold, 744 nM
- B2 — 3.9-fold lower, 254 nM

Point of comparison: B3, “CRF1R Emax %” value 23.6%. Against it:
- B1 — higher, 83.5%
- B2 — higher, 100%

target: T1, corticotropin releasing factor 2 …; experiment: cell-based or functional assay

Point of comparison: B1, “CRF2R EC50” value 100 nM. Against it:
- B2 — 7.9-fold lower, 12.6 nM
- B3 — the same, 100 nM

Point of comparison: B3, “CRF2R Emax %” value 49.3%. Against it:
- B1 — higher, 72.6%
- B2 — higher, 100%

target: T2, CRF2R; experiment: cell-based or functional assay

Point of comparison: B7, “CRF2R EC50” value 61.4 nM. Against it:
- B4 — 11-fold lower, 5.6 nM
- B5 — 7.2-fold lower, 8.5 nM
- B6 — 12-fold lower, 5.2 nM
- B8 — 2.2-fold lower, 27.7 nM
- B9 — within 1.5-fold, 43.1 nM
- B10 — 12-fold lower, 5 nM
- B11 — 7-fold lower, 8.8 nM
- B12 — 8.3-fold lower, 7.4 nM
- B13 — 2-fold lower, 30.5 nM
- B14 — 12-fold lower, 5 nM
- B15 — 3.3-fold lower, 18.8 nM
- B16 — 17-fold lower, 3.6 nM
- B17 — 6-fold lower, 10.2 nM
- B18 — within 1.5-fold, 59.5 nM
- B19 — 2.5-fold lower, 25 nM
- B20 — 7.1-fold lower, 8.7 nM
- B21 — 7.9-fold lower, 7.81 nM
- B22 — 7.4-fold lower, 8.33 nM
- B23 — 7.3-fold lower, 8.46 nM
- B24 — 6-fold lower, 10.2 nM

Point of comparison: B6, “CRF2R Emax” value 94%. Against it:
- B4 — lower, 88%
- B5 — lower, 92%
- B7 — higher, 96%
- B8 — higher, 97%
- B9 — higher, 100%
- B10 — higher, 100%
- B11 — higher, 100%
- B12 — lower, 93%
- B13 — higher, 97%
- B14 — higher, 96%
- B16 — lower, 93%
- B17 — higher, 97%
- B18 — higher, 100%
- B19 — lower, 93%
- B20 — higher, 99%
- B21 — higher, 99%
- B22 — higher, 100%
- B23 — higher, 96%
- B24 — higher, 100%

target: CRF1R; experiment: cell-based or functional assay

Point of comparison: B22, “CRF1R EC50” value 1000 nM. Against it:
- B4 — 15-fold lower, 64.9 nM
- B5 — within 1.5-fold, 706 nM
- B6 — 13-fold lower, 76.2 nM
- B7 — 2.1-fold lower, 466 nM
- B8 — 2.2-fold lower, 447 nM
- B9 — higher, > 1000 nM
- B10 — 10-fold lower, 99.6 nM
- B11 — 5.3-fold lower, 188 nM
- B12 — 38-fold lower, 26.4 nM
- B13 — within 1.5-fold, 696 nM
- B14 — 9.4-fold lower, 106 nM
- B15 — 9.7-fold lower, 103 nM
- B16 — 31-fold lower, 32.1 nM
- B17 — 23-fold lower, 43.5 nM
- B18 — within 1.5-fold, 826 nM
- B19 — 7.9-fold lower, 126 nM
- B20 — 2.5-fold lower, 404 nM
- B21 — within 1.5-fold, 906 nM
- B23 — within 1.5-fold, 908 nM
- B24 — the same, 1000 nM

Point of comparison: B8, “CRF1R Emax” value 96%. Against it:
- B4 — lower, 81%
- B5 — lower, 93%
- B6 — lower, 86%
- B7 — lower, 88%
- B9 — lower, 18%
- B10 — lower, 80%
- B11 — higher, 99%
- B12 — lower, 80%
- B13 — higher, 97%
- B14 — lower, 94%
- B15 — lower, 93%
- B16 — lower, 74%
- B17 — lower, 90%
- B18 — lower, 37%
- B19 — lower, 88%
- B20 — higher, 100%
- B21 — lower, 60%
- B22 — lower, 64%
- B23 — lower, 88%
- B24 — lower, 82%
